The test concerns the target T1, S. aureus FtsZ, full length (Staphylococcus aureus, UniProt P0A031 1-390, FITC label, ~0.7 FITC per FtsZ).
T1 sequence: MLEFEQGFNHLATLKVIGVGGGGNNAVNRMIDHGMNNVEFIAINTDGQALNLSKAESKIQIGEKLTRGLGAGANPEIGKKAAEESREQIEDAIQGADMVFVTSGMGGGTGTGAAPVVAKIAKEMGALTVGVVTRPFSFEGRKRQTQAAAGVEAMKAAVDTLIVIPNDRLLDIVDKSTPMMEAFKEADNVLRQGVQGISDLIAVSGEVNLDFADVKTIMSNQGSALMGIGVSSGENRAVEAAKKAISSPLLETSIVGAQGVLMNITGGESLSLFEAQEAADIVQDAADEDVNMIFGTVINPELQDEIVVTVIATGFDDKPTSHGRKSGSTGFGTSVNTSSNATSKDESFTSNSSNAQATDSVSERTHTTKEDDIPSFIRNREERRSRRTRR
Kind of test: other fluorescence titration.

B1: S. aureus GpsB (natural protein)
chain: MSDVSLKLSAKDIYEKDFEKTMARGYRREEVDAFLDDIIADYQKMADMNNEVVKLSEENHKLKKELEELRLRVATSRPQDNKSFSSNNTTTNTSSNNVDILKRISNLEKAVFGK
The Kd is the concentration at which binding is half-saturated. Read a low Kd as tighter binding. The molecule B1 displayed a dissociation constant Kd of 53.8 ± 8 µM.

Values taken from paper PMC11742113 (Molecular Biology of the Cell, 2025).
